From PMC8628696, “Stable DNA Aptamer–Metal–Organic Framework as Horseradish Peroxidase Mimic for Ultra-Sensitive Detection of Carcinoembryonic Antigen in Serum”

Target: carcinoembryonic antigen (CEA) (human, UniProt P06731 35-685)
Test: colorimetric antibody-aptamer sandwich assay; MOF-grafted tetrahedron 25 ug/mL; CEA 20 ng/mL; antibody-captured CEA; Colorimetric sandwich assay: TMB 2 mM, H2O2 0.2 M, detection time 20 min; binding buffer, pH and temperature not given in the material (storage in PBS at 37 C)
Details: protein: commercial; label: grafted on PCN-222(Fe) MOF via 5' phosphates (peroxidase mimic); DNA tetrahedron of 4 strands with single-stranded 5' aptamer extension on strand D

carcinoembryonic antigen (CEA), sequence (P06731 35-685): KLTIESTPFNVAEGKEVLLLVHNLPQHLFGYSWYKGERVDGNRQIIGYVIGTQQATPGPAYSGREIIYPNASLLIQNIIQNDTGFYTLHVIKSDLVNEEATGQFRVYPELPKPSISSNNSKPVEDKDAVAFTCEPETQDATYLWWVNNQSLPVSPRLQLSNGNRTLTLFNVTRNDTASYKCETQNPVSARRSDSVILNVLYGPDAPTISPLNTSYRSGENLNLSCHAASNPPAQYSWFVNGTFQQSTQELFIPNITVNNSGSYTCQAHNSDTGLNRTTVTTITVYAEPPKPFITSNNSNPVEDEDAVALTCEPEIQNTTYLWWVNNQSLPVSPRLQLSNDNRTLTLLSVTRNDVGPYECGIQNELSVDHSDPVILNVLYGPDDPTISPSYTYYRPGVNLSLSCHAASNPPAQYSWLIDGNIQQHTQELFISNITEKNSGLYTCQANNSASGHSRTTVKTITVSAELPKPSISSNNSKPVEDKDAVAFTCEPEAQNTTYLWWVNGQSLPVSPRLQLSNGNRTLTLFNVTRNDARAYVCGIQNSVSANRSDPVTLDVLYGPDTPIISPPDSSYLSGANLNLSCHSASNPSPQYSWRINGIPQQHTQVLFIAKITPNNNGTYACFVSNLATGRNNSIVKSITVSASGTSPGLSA

B1: CEAapt-TDN (strands D+A+B+C) on PCN-222(Fe) MOF (structured_DNA)
DNA 1: ATACCAGCTTATTCAATTTTTTTTACATTCCTAAGTCTGAAACATTACAGCTTGCTACACGAGAAGAGCCGCCATAGTA
DNA 2: TATCACCAGGCAGTTGACAGTGTAGCAAGCTGTAATAGATGCGAGGGTCCAATAC
DNA 3: TCAACTGCCTGGTGATAAAACGACACTACGTGGGAATCTACTATGGCGGCTCTTC
DNA 4: TTCAGACTTAGGAATGTGCTTCCCACGTAGTGTCGTTTGTATTGGACCCTCGCAT
modifications: 5' phosphate on strands A, B and C
B1: binds.
